Data on eleven variants can be found in paper PMC8427231, “Mechanism of dimerization and structural features of human LI-cadherin” (The Journal of Biological Chemistry, 2021).

The labels stand for the following.
B1: human LI-cadherin EC1-4 [modified: N-glycans (four modelled on chain A, two on chain B of the crystal structure; sites not printed); N-glycans (four modelled on chain A, two on chain B of the crystal structure; sites not … (parent)
chain: QEGKFSGPLKPMTFSIYEGQEPSQIIFQFKANPPAVTFELTGETDNIFVIEREGLLYYNRALDRETRSTHNLQVAALDANGIIVEGPVPITIKVKDINDNRPTFLQSKYEGSVRQNSRPGKPFLYVNATDLDDPATPNGQLYYQIVIQLPMINNVMYFQINNKTGAISLTREGSQELNPAKNPSYNLVISVKDMGGQSENSFSDTTSVDIIVTENIWKAPKPVEMVENSTDPHPIKITQVRWNDPGAQYSLVDKEKLPRFPFSIDQEGDIYVTQPLDREEKDAYVFYAVAKDEYGKPLSYPLEIHVKVKDINDNPPTCPSPVTVFEVQENERLGNSIGTLTAHDRDEENTANSFLNYRIVEQTPKLPMDGLFLIQTYAGMLQLAKQSLKKQDTPQYNLTIEVSDKDFKTLCFVQINVID

One test covers variants of B1. Put plainly: SEC-MALS. Conditions: with itself; injected at 100 μM; read off a plot. (In general: Size exclusion chromatography separates by hydrodynamic size, large species first.)
In the case of chain 1 V188A, the screen value was 51.5 kDa.
On the same count and under the same terms, for chain 1 L333A the value was 54.8 kDa; for chain 1 Y377A, 53.6 kDa.
As to chain 1 N200A, the screen value was 52.2 kDa.
Turning to chain 1 I147A, the screen value stood at 50.5 kDa.
For chain 1 Q382A, the screen value turned out to be 52.7 kDa.
Still for that read-out and setting: for chain 1 F354A the value was 55.1 kDa; for chain 1 N349A, 52.4 kDa.
For the variant chain 1 L149A, the screen value was 51.1 kDa.
On the same count and under the same terms, as for chain 1 F202A, the figure is 49.5 kDa; as for chain 1 N154A, 53.1 kDa.

The test is the same for the next values; noted with them: with itself; injected at 50 μM; read off a plot.
chain 1 F202A: the screen value was determined as 58 kDa.
